Data taken from patent JP2000236884A.

Biological target: ヒトIL−18 (human interleukin-18, polypeptide having the amino acid sequence of SEQ ID NO 21) (human), Q14116
Assay: cell-based or functional assay
Details: scale: fold molar concentration against #125-2HmAb

B1: scFv peptide with His6 of Example 2-2, encoded by pEscFv#125-2H.HT (SEQ ID NO 10) (scFv)
scFv: EIQLQQSGPELVKPGASVKVSCKASGYSFTDYFIYWVKQSHGKSLEWIGDIDPYNGDTSYNQKFRDKATLTVDQSSTTAFMHLNSLTSEDSAVYFCARGLRFWGQGTLVTVSAGGGGGGSGGGGSGGGGSDIQMTQSPSSLSASLGERVSLTCRASQDIGSKLYWLQQEPDGTFKRLIYATSSLDSGVPKRFSGSRSGSDYSLTISSLESEDFVDYYCLQYASSPYTFGGGTKLAIKHHHHHH
molar concentration needed for the same IL-18 neutralisation as #125-2HmAb (IFN-γ induction in KG-1 cells): 2
